Experimental data reported in patent US20240270821A1, “GIP/GLP1/GCG TRI-RECEPTOR AGONISTS AND USES THEREOF” (priority 2023, published 2024).
Starred links: 1 amine or outer side, 2 acyl side, 3 side chain; linkers in the order of their positions; H or OH if unused. Non-standard residues stand in square brackets, D forms with d. Groups on a side chain read outwards from the residue. No end group written: not given here. *: point of attachment. C20 diacid = O=C(O)CCCCCCCCCCCCCCCCCCC(=O)*; C18 diacid = O=C(O)CCCCCCCCCCCCCCCCC(=O)*; αMePhe(2-F) = C[C@](N)(Cc1ccccc1F)C(=O)O; γGlu = O=C(O)[C@H](CCC(=O)[*:2])N[*:1]; NMeY = CN[C@@H](Cc1ccc(O)cc1)C(=O)O; αMe4Pal = C[C@](N)(Cc1ccncc1)C(=O)O; αMeF = C[C@](N)(Cc1ccccc1)C(=O)O; 4Pal = N[C@@H](Cc1ccncc1)C(=O)O; αMeL = CC(C)C[C@](C)(N)C(=O)O; AEEA = NCCOCCOCC(=O)O; Aib = CC(C)(N)C(=O)O

T1: hGIPR (Homo sapiens, UniProt P48546)
T1 sequence (P48546 22-466): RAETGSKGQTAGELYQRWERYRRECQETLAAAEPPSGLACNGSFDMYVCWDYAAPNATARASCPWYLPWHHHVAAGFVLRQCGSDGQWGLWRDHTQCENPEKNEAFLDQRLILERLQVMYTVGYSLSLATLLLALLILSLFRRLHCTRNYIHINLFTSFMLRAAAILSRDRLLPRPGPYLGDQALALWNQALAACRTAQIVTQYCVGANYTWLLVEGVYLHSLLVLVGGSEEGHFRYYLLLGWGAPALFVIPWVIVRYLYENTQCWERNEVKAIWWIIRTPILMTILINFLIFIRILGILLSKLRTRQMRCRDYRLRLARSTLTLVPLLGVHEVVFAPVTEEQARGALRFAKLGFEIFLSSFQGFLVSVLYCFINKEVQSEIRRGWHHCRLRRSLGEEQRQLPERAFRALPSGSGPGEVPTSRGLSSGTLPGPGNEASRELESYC

T2: human GIP receptor (human) (UniProt P48546)
T2 sequence (looked up): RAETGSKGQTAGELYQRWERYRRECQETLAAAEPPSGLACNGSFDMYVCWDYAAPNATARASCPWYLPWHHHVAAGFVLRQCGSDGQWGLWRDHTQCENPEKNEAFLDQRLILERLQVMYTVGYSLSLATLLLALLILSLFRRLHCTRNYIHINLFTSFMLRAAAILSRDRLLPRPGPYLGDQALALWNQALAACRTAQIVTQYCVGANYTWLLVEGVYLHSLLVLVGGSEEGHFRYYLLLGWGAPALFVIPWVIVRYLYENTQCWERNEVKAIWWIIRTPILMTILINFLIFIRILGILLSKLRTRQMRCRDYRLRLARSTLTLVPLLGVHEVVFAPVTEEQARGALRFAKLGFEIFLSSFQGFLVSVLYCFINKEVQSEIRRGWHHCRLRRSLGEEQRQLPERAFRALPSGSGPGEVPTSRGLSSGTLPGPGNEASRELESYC


How the values were obtained:
[1] = target: Pro-Link-tagged Human GLP-1R (human) (UniProt P43220); assay: cell-based or functional assay
Sequence of Pro-Link-tagged Human GLP-1R (human) (P43220 24-463): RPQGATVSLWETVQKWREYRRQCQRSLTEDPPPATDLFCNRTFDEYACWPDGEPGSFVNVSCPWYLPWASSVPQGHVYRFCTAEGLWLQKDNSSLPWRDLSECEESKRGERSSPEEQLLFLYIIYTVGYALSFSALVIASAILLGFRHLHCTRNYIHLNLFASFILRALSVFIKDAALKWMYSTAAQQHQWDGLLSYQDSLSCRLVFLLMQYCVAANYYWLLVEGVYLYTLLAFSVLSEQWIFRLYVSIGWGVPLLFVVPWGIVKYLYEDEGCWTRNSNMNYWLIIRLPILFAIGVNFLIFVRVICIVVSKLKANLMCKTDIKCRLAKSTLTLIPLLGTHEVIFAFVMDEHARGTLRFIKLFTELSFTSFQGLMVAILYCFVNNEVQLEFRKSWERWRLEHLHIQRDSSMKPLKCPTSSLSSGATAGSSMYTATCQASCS

hGIPR [2] = target: T1, hGIPR; assay: Functional cAMP activity in the presence of 1% HSA; format: cell-based; settings: read-out: cAMP Rel EC50, hGIPR
hGLP-1R [3] = target: T3, hGLP-1R (Homo sapiens, UniProt P43220); assay: Functional cAMP activity in the presence of 1% HSA; format: cell-based; settings: read-out: cAMP Rel EC50, hGLP-1R
T3 sequence (P43220 24-463): as above

human GcgR = human GcgR (Homo sapiens, UniProt P47871); assay: Functional cAMP activity in the presence of 1% HSA; format: cell-based; settings: read-out: cAMP Rel EC50, hGcgR
Sequence of human GcgR (P47871 26-477): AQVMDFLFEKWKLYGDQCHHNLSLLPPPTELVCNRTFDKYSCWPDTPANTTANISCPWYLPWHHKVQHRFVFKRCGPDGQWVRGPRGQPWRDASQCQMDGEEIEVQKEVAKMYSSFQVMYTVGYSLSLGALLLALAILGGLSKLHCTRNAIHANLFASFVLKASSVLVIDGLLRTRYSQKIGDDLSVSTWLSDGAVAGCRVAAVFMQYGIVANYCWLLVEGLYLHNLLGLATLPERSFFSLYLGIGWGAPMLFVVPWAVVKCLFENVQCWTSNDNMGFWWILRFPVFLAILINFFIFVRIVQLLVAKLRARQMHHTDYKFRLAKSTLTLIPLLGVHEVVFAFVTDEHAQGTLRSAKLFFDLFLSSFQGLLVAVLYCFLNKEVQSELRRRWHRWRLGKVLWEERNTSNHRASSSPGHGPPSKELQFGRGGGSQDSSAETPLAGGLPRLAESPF

hGIPR [4] = target: T1, hGIPR; assay: Functional cAMP activation in the presence of 0.1% casein (no HSA); format: cell-based; settings: in the presence of 0.1% casein (no HSA); geometric mean; read-out: Relative cAMP EC50, hGIPR;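 on Relative cAMP EC50, hGIPR: intracellular cAMP rise after 30 min at 37 °C read by HTRF against a standard curve, scaled between buffer alone (0%) and top control ligand concentration (100%), four-parameter fit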;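 on Relative cAMP EC50, hGLP-1R: intracellular cAMP rise after 30 min at 37 °C read by HTRF, normalized between buffer only (0%) and maximal control ligand (100%), four-parameter variable-slope fit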;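 on Relative cAMP EC50, hGcgR: intracellular cAMP rise after 30 min at 37 °C, read by HTRF against a cAMP standard curve, scaled from buffer only (0%) to maximal control ligand response (100%)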
hGLP-1R [5] = target: T3, hGLP-1R; assay: as above; format: cell-based; settings: in the presence of 0.1% casein (no HSA); geometric mean; read-out: Relative cAMP EC50, hGLP-1R
hGcgR = hGcgR (Homo sapiens, UniProt P47871); assay: as above; format: cell-based; settings: in the presence of 0.1% casein (no HSA); geometric mean; read-out: Relative cAMP EC50, hGcgR;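 further: intracellular cAMP rise after 30 min at 37 °C, read by HTRF against a cAMP standard curve, scaled from buffer only (0%) to maximal control ligand response (100%)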
Sequence of hGcgR (P47871 26-477): as above

human GLP1-R = human GLP1-R (Homo sapiens, UniProt P43220); assay: GLP1-R internalization assay in HEK293 cells; format: cell-based; settings: for EC50: HEK293 cells expressing SNAP-GLP-1R, read-out: GLP1R Internalization EC50; for Internalization % TOP: normalized to maximum concentration of GLP-1 (100%)
Sequence of human GLP1-R (P43220 24-463): as the sequence (P43220 24-463) above

[6] = test system: Intestinal organoid from Göttingen minipig jejunum tissue, 2D monolayer; assay: Cell based in vitro permeability (Papp) assay; format: in vitro ADME
In short: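 Papp calculated from LC/MS peptide levels in apical and basal compartments. Basal sampling at 20 min with C10 present, across monolayers grown from dissociated minipig jejunal organoids in transwells.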

hGLP-1R [7] = target: T3, hGLP-1R; assay: cell-based or functional assay
[8] = target: T2, human GIP receptor (human); assay: cell-based or functional assay
[9] = target: human glucagon receptor (human) (UniProt P47871); assay: cell-based or functional assay
Sequence of human glucagon receptor (human) (P47871 26-477): as the sequence (P47871 26-477) above

Molecule | % Stimulation Max [1] | EC50 (hGIPR [2]) | EC50 (hGLP-1R [3]) | EC50 (human GcgR) | EC50 (hGIPR [4]) | EC50 (hGLP-1R [5]) | EC50 (hGcgR) | EC50 (human GLP1-R) | Internalization % TOP (human GLP1-R) | Relative Papp (Compared to internal standard) [6] | hGLP1R β-arrestin Rel EC50 [1] | Relative cAMP EC50 (hGLP-1R [7]) | cAMP Rel EC50 (in the presence of 1% HSA) (hGLP-1R [7]) | Relative cAMP EC50 [8] | cAMP Rel EC50 (in the presence of 1% HSA) [8] | Relative cAMP EC50 [9] | cAMP Rel EC50 (in the presence of 1% HSA) [9] | cAMP Rel EC50 (1% HSA) (hGLP-1R [7]) | cAMP Rel EC50 (1% HSA) [8] | cAMP Rel EC50 (1% HSA) [9]
Tirzepatide (peptide) | 10.5% |  |  |  |  |  |  |  |  |  |  |  |  |  |  |  |  |  |  | 
CC[C@H](C)[C@H](NC(=O)[C@H](Cc1ccccc1)NC(=O)[C@H](C)NC(=O)C(C)(C)NC(=O)[C@H](CCC(N)=O)NC(=O)[C@H](C)NC(=O)[C@H](CCCCNC(=O)COCCOCCNC(=O)CC[C@H](NC(=O)CCCCCCCCCCCCCCCCC(=O)O)C(=O)O)NC(=O)[C@H](CCCCN)NC(=O)[C@H](CC(=O)O)NC(=O)[C@H](CC(C)C)NC(=O)[C@](C)(CC(C)C)NC(=O)[C@H](CCCN)NC(=O)[C@H](CO)NC(=O)[C@H](Cc1ccccc1)NC(=O)[C@H](CC(=O)O)NC(=O)[C@H](CO)NC(=O)[C@@H](NC(=O)[C@H](Cc1ccccc1)NC(=O)[C@@H](NC(=O)CNC(=O)[C@H](CCC(N)=O)NC(=O)C(C)(C)NC(=O)[C@@H](N)Cc1ccc(O)cc1)[C@@H](C)O)[C@@H](C)O)C(=O)N[C@@H](CCC(=O)O)C(=O)N[C@@H](Cc1ccc(O)cc1)C(=O)N[C@@H](CC(C)C)C(=O)N[C@@H](CC(C)C)C(=O)N[C@@H](CCC(=O)O)C(=O)N[C@H](C)C(=O)NCC(=O)N1CCC[C@H]1C(=O)N[C@@H](CO)C(=O)N[C@@H](CO)C(=O)NCC(=O)N[C@@H](C)C(=O)N1CCC[C@H]1C(=O)N1CCC[C@H]1C(=O)N1CCC[C@H]1C(=O)N[C@@H](CO)C(=O)NCC(=O)N[C@H](C(N)=O)[C@@H](C)O [Example 210] |  | 23.5 nM | 264 nM | 501 nM | 0.153 nM | 1.44 nM | 2.81 nM | 80.2 nM | 49.2% | 0.06 |  |  |  |  |  |  |  |  |  | 
H-Y[Aib]QGTFTSD[4Pal]SR[αMeL]LDKK([AEEA-γGlu-C18 diacid])AQ[αMe4Pal]AFIEYLIE[Aib]GESSGAPPPSGE-NH2 [Example 225] |  | 40.2 nM | 438 nM | 561 nM | 0.213 nM | 2.44 nM | 2.36 nM | 26 nM | 56.7% | 0.48 |  |  |  |  |  |  |  |  |  | 
HXQGTXTSDYSILLDKKAAXAFIEYLIETGPSSGEPPPSEG (Aib, αMeF(2F), AEEA-γGlu-C20 diacid on Lys, amide; synthetic construct; SITE 2: note = 2-Aminoisobutyric Acid; SITE 6: note = alpha-methyl-2-fluoro-L-phenylalanine; SITE 17: note = Lysine is chemically modified through conjugation of the epsilon-amino group of the Lysine side chain with (2-[2-(2-Amino-ethoxy)-ethoxy]-acetyl)-(gamma-Glu)-CO-(CH2) 18-) [Example 290] | 83.5% |  |  |  |  |  |  |  |  |  | 3.94 nM | 0.34 nM | 90 nM | 0.43 nM | 53.4 nM | 2.68 nM | 878 nM |  |  | 
YXQGTFTSDYSIXLDKKAAXAFIEYLLEGGPSSGEPPPSEG (Aib, αMeL; lysine acylated (AEEA)2-γGlu-C20 diacid; C-terminal amide; synthetic construct; SITE 2: note = 2-Aminoisobutyric Acid; SITE 13: note = alpha-methyl-leucine; SITE 17: note = Lysine is chemically modified through conjugation of the epsilon-amino group of the Lysine side chain with (2-[2-(2-Amino-ethoxy)-ethoxy]-acetyl)2-(gamma-Glu)-CO-(CH2 )18-CO2H; SITE 20:) [Example 294] | 35.3% |  |  |  |  |  |  |  |  |  | 27.7 nM | 2.16 nM | 554 nM | 0.318 nM | 54.1 nM | 1.07 nM | 518 nM |  |  | 
Y[Aib]QGT[αMePhe(2-F)]TSDYSILLDKIAQK([AEEA-γGlu-C20 diacid])AFIEYLLEGGPSSGEPPPSEG-NH2 [Example 293] | 54.6% |  |  |  |  |  |  |  |  |  | 11.9 nM | 0.994 nM | 295 nM | 0.0587 nM | 9.63 nM | 4.01 nM | 1740 nM |  |  | 
[NMeY][Aib]QGT[αMeF]TSDYSSLLDKIAAKAFIEYLLEGGPSSGEPPPSEG-NH2 (not fully specified (residue 20)) [Example 297] | 33.5% |  |  |  |  |  |  |  |  |  | 60.2 nM | 2.96 nM |  | 0.626 nM |  | 3.26 nM |  | 1130 nM | 325 nM | 2320 nM
